Data as given in IntAct's records for PubMed 27150041.

B1: Smu-2 suppressor of mec-8 and unc-52 protein (Caenorhabditis elegans), Q9N4U5 (parent)
chain: MADNPTNLRNADFRKLLTSARSDRPAVSAFAKPADPKTGDDKPASFKHKHLKPAKFKKPQAAAHGKAKKEKTEADEDEAALKNILKNYRDRAAERRKQGDEKEDPSKLTAAYRAVPGDARSAQDQADLRKQAILESKYLGGDLEHTHLVKGLDYSLLNKVRSEIDKSDDDDDDDIDTAFDEKVTSSSSSSKPSEASLLAQELAQSHSENRMVRSLHRVLFKNEVPLHNQLFAKGRMAYVVELEDEETDIPTTLLRSLHDLPRAESAQSIQANNLIILKLSHVLSHLRAEPKKKKKEEFRVQLGSRDAPGAAAAAPGAKGDSIYDDLDDYVPSRKSRDSRDAGRRGSRRDRSRDRSRDRDRDRDRDNRDRYFEKSANSRREEEQNRREQQRERERAEQERRREREKEREQEKAKEREKKRKELEESSGYDECYPGGLVEMGGAWDSDEEADYSKMDAGPKKNQAVNRWDFDTEEEYASYMEGREALPKAAYQYGVKNGEGGRKNKKQSAVSDAKRLDRELNEINKIMDKRKAGGDGAGGGGDYKKPKY

Variants of: B1
Details: with smu1_caeel smu-1, G5EEG7
smu1_caeel smu-1, G5EEG7, sequence (G5EEG7 whole entry): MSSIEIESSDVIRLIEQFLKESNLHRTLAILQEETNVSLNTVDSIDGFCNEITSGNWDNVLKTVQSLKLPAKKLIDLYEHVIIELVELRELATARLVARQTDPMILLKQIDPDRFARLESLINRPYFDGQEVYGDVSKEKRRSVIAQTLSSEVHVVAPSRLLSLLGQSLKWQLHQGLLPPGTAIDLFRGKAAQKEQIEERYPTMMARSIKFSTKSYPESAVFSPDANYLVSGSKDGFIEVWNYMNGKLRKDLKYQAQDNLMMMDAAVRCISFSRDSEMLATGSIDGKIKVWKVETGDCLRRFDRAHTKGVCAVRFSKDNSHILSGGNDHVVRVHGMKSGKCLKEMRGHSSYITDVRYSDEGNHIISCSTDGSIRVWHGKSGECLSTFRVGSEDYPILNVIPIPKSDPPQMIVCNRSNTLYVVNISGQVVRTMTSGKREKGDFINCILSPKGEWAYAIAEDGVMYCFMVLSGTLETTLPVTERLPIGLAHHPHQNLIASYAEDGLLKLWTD

Row | effect of a mutation on the interaction | Variant
1 | disrupting interaction strength | MADNPTNLRNADFRKLLTSARSDRPAVSAFAKPADPKTGDDKPASFKHKHLKPAKFKKPQAAAHGKAKKEKTEADEDEAALKNILKNYRDRAAERRKQGDEKEDPSKLTAAYRAVPGDARSAQDQADLRKQAILESKYLGGDLEHTHLVKGLDYSLLNKVRSEIDKSDDDDDDDIDTAFDEKVTSSSSSSKPSEASLLAQELAQSHSENRMRRSLHRVLFKNEVPLHNQLFAKGRMAYVVELEDEETDIPTTLLRSLHDLPRAESAQSIQANNLIILKLSHVLSHLRAEPKKKKKEEFRVQLGSRDAPGAAAAAPGAKGDSIYDDLDDYVPSRKSRDSRDAGRRGSRRDRSRDRSRDRDRDRDRDNRDRYFEKSANSRREEEQNRREQQRERERAEQERRREREKEREQEKAKEREKKRKELEESSGYDECYPGGLVEMGGAWDSDEEADYSKMDAGPKKNQAVNRWDFDTEEEYASYMEGREALPKAAYQYGVKNGEGGRKNKKQSAVSDAKRLDRELNEINKIMDKRKAGGDGAGGGGDYKKPKY [V212R]
2 | disrupting interaction strength | MADNPTNLRNADFRKLLTSARSDRPAVSAFAKPADPKTGDDKPASFKHKHLKPAKFKKPQAAAHGKAKKEKTEADEDEAALKNILKNYRDRAAERRKQGDEKEDPSKLTAAYRAVPGDARSAQDQADLRKQAILESKYLGGDLEHTHLVKGLDYSLLNKVRSEIDKSDDDDDDDIDTAFDEKVTSSSSSSKPSEASLLAQELAQSHSENRMVRSLHRVLRKNEVPLHNQLFAKGRMAYVVELEDEETDIPTTLLRSLHDLPRAESAQSIQANNLIILKLSHVLSHLRAEPKKKKKEEFRVQLGSRDAPGAAAAAPGAKGDSIYDDLDDYVPSRKSRDSRDAGRRGSRRDRSRDRSRDRDRDRDRDNRDRYFEKSANSRREEEQNRREQQRERERAEQERRREREKEREQEKAKEREKKRKELEESSGYDECYPGGLVEMGGAWDSDEEADYSKMDAGPKKNQAVNRWDFDTEEEYASYMEGREALPKAAYQYGVKNGEGGRKNKKQSAVSDAKRLDRELNEINKIMDKRKAGGDGAGGGGDYKKPKY [F220R]
